# Source: patent US7030099B2, “Tumor specific promoters of the midkine gene that allow for selective expression in P53-inactivated cells” (Research Corporation Technologies, Inc., priority 2000, dated 2006)
# B1: p251: c-erbB-2 genomic region −213/+38, SEQ ID NO: 9 (nucleic acid, listed as Homo sapiens)
# DNA: GGCAACCCAGGCGTCCCGGCGCTAGGAGGGACGACCCAGGCCTGCGCGAAGAGAGGGAGAAAGTGAAGCTGGGAGTTGCCGACTCCCAGACTTCGTTGGAATGCAGTTGGAGGGGGCGAGCTGGGAGCGCGCTTGCTCCCAATCACAGGAGAAGGAGGAGGTGGAGGAGGAGGGCTGCTTGAGGAAGTATAAGAATGAAGTTGTGAAGCTGAGATTCCCCTCCATTGGGACCGGAGAAACCAGGGGAGCCC
# Tests used:
# [1] = system: human breast cancer cells OCUBM, MCF7, BT549; test: Luciferase assay of c-erbB-2 promoter activity, breast cancer cells; assay type: cell-based; details: FIG. 7A
# Procedure: With the transcription initiation site of the c-erbB-2 gene as +1, DNA that corresponded to a genomic region (p533) from −435 to +38 and that had the sequence set forth in SEQ ID NO: 7 was amplified by the PCR method, and then the DNA fragment was integrated into the pGEM-TEasy (manufactured by Promega), and the sequences of the PCR product was determined. Thus, after inserting this PCR product into the SmaI site of pGL2-Basic (manufactured by Promega), it was cleaved with BlnI/SmaI, PstI/SmaI, and BssHII/SmaI using the restriction enzyme sites present on the c-erbB-2 genomic gene to construct plasmids in which the genomic regions of c-erbB-2, p344 (−306/+38) (DNA having the base sequence set forth in SEQ ID NO: 8), p251 (−213/+38) (DNA having the base sequence set forth in SEQ ID NO: 9) and p124 (−86/+38) (DNA having the base sequence set forth in SEQ ID NO: 10) are localized upstream of the Firefly luciferase gene, respectively. Using the plasmid pGL2-Control (manufactured by Promega) having the promoter of SV40 virus and the plasmid pGL2-Basic (manufactured by Promega) containing no promoters, gene introduction was performed in human breast cancer cells OCUBM, MCF7, BT549, normal human fibroblasts HEF, MRC-5, human malignant melanoma A875, and human lung cancer cells QG-56, all of which were cultured in DMEM (Sigma) supplemented with 10% bovine fetal serum. Firstly, after 10 μg each of these plasmids and lipofectin (Life Technologies) were mixed, it was allowed to stand at room temperature for 30 minutes to form a complex of DNA and lipid. […] After 48 hours-culture, the cells were disrupted using the Dual-Luciferase Reporter Assay System (manufactured by Promega), and the Firefly luciferase activity therein was determined using the reagents in the same kit. In order to normalize the efficiency of gene introduction, 1 μg of pRL-TK plasmid (manufactured by Promega) was included in each gene-introduced group, and the Renilla luciferase activity by the TK promoter was determined, based on which the Firefly luciferase activity was corrected.
# [2] = system: normal human fibroblasts HEF, MRC-5; test: Luciferase assay of c-erbB-2 promoter activity, normal fibroblasts; assay type: cell-based; details: FIG. 7B
# Procedure: (§1) With the transcription initiation site of the c-erbB-2 gene as +1, DNA that corresponded to a genomic region (p533) from −435 to +38 and that had the sequence set forth in SEQ ID NO: 7 was amplified by the PCR method, and then the DNA fragment was integrated into the pGEM-TEasy (manufactured by Promega), and the sequences of the PCR product was determined. Thus, after inserting this PCR product into the SmaI site of pGL2-Basic (manufactured by Promega), it was cleaved with BlnI/SmaI, PstI/SmaI, and BssHII/SmaI using the restriction enzyme sites present on the c-erbB-2 genomic gene to construct plasmids in which the genomic regions of c-erbB-2, p344 (−306/+38) (DNA having the base sequence set forth in SEQ ID NO: 8), p251 (−213/+38) (DNA having the base sequence set forth in SEQ ID NO: 9) and p124 (−86/+38) (DNA having the base sequence set forth in SEQ ID NO: 10) are localized upstream of the Firefly luciferase gene, respectively. Using the plasmid pGL2-Control (manufactured by Promega) having the promoter of SV40 virus and the plasmid pGL2-Basic (manufactured by Promega) containing no promoters, gene introduction was performed in human breast cancer cells OCUBM, MCF7, BT549, normal human fibroblasts HEF, MRC-5, human malignant melanoma A875, and human lung cancer cells QG-56, all of which were cultured in DMEM (Sigma) supplemented with 10% bovine fetal serum. Firstly, after 10 μg each of these plasmids and lipofectin (Life Technologies) were mixed, it was allowed to stand at room temperature for 30 minutes to form a complex of DNA and lipid. Then the complex, after removing the bovine fetal serum therefrom, was contacted with the cells. Eight hours later culture medium supplemented with bovine fetal serum was added. After 48 hours-culture, the cells were disrupted using the Dual-Luciferase Reporter Assay System (manufactured by Promega), and the Firefly luciferase activity therein was determined using the reagents in the same kit. In order to normalize the efficiency of gene introduction, 1 μg of pRL-TK plasmid (manufactured by Promega) was included in each gene-introduced group, and the Renilla luciferase activity by the TK promoter was determined, based on which the Firefly luciferase activity was corrected.
# [3] = system: human malignant melanoma A875, human lung cancer cells QG-56; test: Luciferase assay of c-erbB-2 promoter activity, non-breast tumor cells; assay type: cell-based; details: human malignant melanoma cells and human lung cancer cells; FIG. 7C
# Procedure: as §1
# [4] = system: breast cancer cells MCF7; test: In vitro sensitivity to GCV of promoter-TK gene-introduced cells; assay type: cell-based, human; details: GCV seven days, FIG. 8A
# Procedure: (§2) In order to examine the cytotoxic effects using the p251 promoter, a suicide gene HSV-TK was ligated downstream of this promoter region (pro251-TK), this plasmid was expressed in cells, and a prodrug GCV was added to the culture of the gene-introduced cells. The measurement of cytotoxic effects by this system was carried out according to the method described in Moolten, Fla. Cancer Gene Ther., 1:279–287, 1994. Firstly, the cytomegalovirus (CMV) promoter of pcDNA3 (manufactured by Invitrogen) was removed using NruI and HindIII sites, into which the p251 promoter was inserted and then using the EcoRV site, the HSV-TK gene excised from pMK (Brinster, R L et al., Cell, 27:223–231, 1981) with BglI and EcoRI was inserted (pro251-TK). As a control, a pcDN3-derived plasmid (pro251) that contains no HSV-TK gene but has integrated the p251 promoter, and a pcDNA3-derived plasmid (CMV-TK) that has the HSV-TK gene and permits the expression of the HSV-TK gene were also used. Each of the plasmids ([…], pro251-TK, CMV-TK) was introduced using lipofectin into the breast cancer cells MCF7 or non-breast cancer cells A875. In order to utilize the expression of the Neo gene contained in pcDNA3 as a drug resistant marker, the transfected cells were cultured with 400 μg/ml of G418 (manufactured by Life Technologies) for ten days to establish the cells that express a respective gene. […]
# [5] = system: non-breast cancer cells A875; test: as above; assay type: cell-based, human; details: GCV seven days, FIG. 8B
# Procedure: as §2
molecule,measurement,setting,value
B1,promoter activity compared with promoter of SV40 virus,[1],more potent than the promoter of SV40 virus
same,transcription activity compared with other c-erbB-2 promoter fragments,[1],higher transcription activity than the p533 promoter
same,promoter activity compared with SV40 promoter,[2],lower than the SV40 promoter
same,transcription activity compared with other c-erbB-2 promoter fragments,[2],low compared with the p344 promoter and with the p533 promoter
same,transcription activity compared with SV40 promoter,[3],lower than the SV40 promoter
same,transcription activity compared with p533 promoter,[3],about the same as that of p533 promoter
same,sensitivity to GCV of cells expressing HSV-TK under the promoter,[4],greater sensitivity to GCV than the parent strain
same,sensitivity to GCV of cells expressing HSV-TK under the promoter,[5],very weak compared with of the parent strain
